Measurements as given in the Immune Epitope Database (IEDB).

What was measured:
[1] = biological target: HLA-B*18:01; assay: IEDB peptide-MHC binding, purified MHC/competitive/radioactivity; filed as Kd, often an IC50 or EC50 that approximates it; ≥ and ≤ were set here for values at or beyond the usual limits of such assays
[2] = biological target: HLA-B*40:01; assay: as above
[3] = biological target: HLA-B*40:02; assay: as above
[4] = biological target: HLA-B*44:02; assay: as above
[5] = biological target: HLA-B*44:03; assay: as above
[6] = biological target: HLA-B*45:01; assay: as above
[7] = biological target: HLA-A*01:01; assay: IEDB peptide-MHC binding, purified MHC/direct/fluorescence; filed as Kd, often an IC50 or EC50 that approximates it; ≥ and ≤ were set here for values at or beyond the usual limits of such assays
[8] = biological target: HLA-A*02:01; assay: as above
[9] = biological target: HLA-A*03:01; assay: as above
[10] = biological target: HLA-A*11:01; assay: as above
[11] = biological target: HLA-A*24:02; assay: as above
[12] = biological target: HLA-A*26:01; assay: as above
[13] = biological target: HLA-A*31:01; assay: as above
[14] = biological target: HLA-A*69:01; assay: as above
[15] = biological target: HLA-B*07:02; assay: as above
[16] = biological target: HLA-B*08:01; assay: as above
[17] = biological target: HLA-B*08:02; assay: as above
[18] = biological target: HLA-B*15:01; assay: as above
[19] = biological target: HLA-B*15:09; assay: as above
[20] = biological target: HLA-B*18:01; assay: as above; conditions: source organism: Influenza A virus (A/chicken/Hubei/wk/1997(H5N1))
[21] = biological target: HLA-B*27:05; assay: as above
[22] = biological target: HLA-B*40:01; assay: as above
[23] = biological target: HLA-B*44:02; assay: as above
[24] = biological target: HLA-B*46:01; assay: as above
[25] = biological target: HLA-B*58:01; assay: as above
[26] = biological target: HLA-A*01:01; assay: IEDB peptide-MHC binding, purified MHC/competitive/fluorescence; filed as Kd, often an IC50 or EC50 that approximates it; ≥ and ≤ were set here for values at or beyond the usual limits of such assays
[27] = biological target: HLA-A*03:01; assay: as above; conditions: source organism: Yersinia pestis Nepal516
[28] = biological target: HLA-B*15:01; assay: as above; conditions: source organism: Yersinia pestis Nepal516
[29] = biological target: HLA-B*35:01; assay: as above
[30] = biological target: HLA-A*02:01; assay: IEDB peptide-MHC binding, purified MHC/competitive/fluorescence; ≥ and ≤ were set here for values at or beyond the usual limits of such assays; conditions: source organism: Zaire ebolavirus
[31] = biological target: HLA-A*24:02; assay: as above; conditions: source organism: Zaire ebolavirus
[32] = biological target: HLA-B*15:01; assay: as above; conditions: source organism: Zaire ebolavirus
[33] = source organism: Mammarenavirus juninense
[34] = source organism: Influenza A virus (A/chicken/Hubei/wk/1997(H5N1))
[35] = source organism: Influenza A virus(A/swine/Shandong/fNY/2003(H9N2))
[36] = source organism: Influenza A virus (A/Puerto Rico/8/34/Mount Sinai(H1N1))
[37] = source organism: Yersinia pestis Nepal516
[38] = source organism: Bacillus anthracis str. A2012
[39] = source organism: SARS coronavirus Tor2
[40] = source organism: Influenza A virus (A/mallard/NZ/1/97(H5N2))
[41] = source organism: Influenza A virus(A/swine/Shandong/fZC/2003(H9N2))
[42] = source organism: Mammarenavirus lassaense

LESLWAPFGV
Kd [1, 33]: 0.607 µM | Kd [2, 33]: ≥ 24.6 µM | Kd [3, 33]: 0.159 µM | Kd [4, 33]: ≥ 31.8 µM | Kd [5, 33]: ≥ 56.4 µM | Kd [6, 33]: 16.1 µM

NPALRMKWM
Kd [7, 34]: ≥ 20 µM | Kd [8, 34]: ≥ 20 µM | Kd [9, 34]: ≥ 20 µM | Kd [10, 34]: ≥ 20 µM | Kd [11, 34]: ≥ 20 µM | Kd [12, 35]: ≥ 20 µM | Kd [13, 34]: ≥ 20 µM | Kd [14, 34]: ≥ 20 µM | Kd [15, 36]: 0.091 µM | Kd [16, 36]: 1.41 µM | Kd [17, 35]: ≥ 20 µM | Kd [18, 34]: ≥ 20 µM | Kd [19, 35]: ≥ 20 µM | Kd [20]: ≥ 20 µM | Kd [21, 34]: ≥ 20 µM | Kd [22, 34]: ≥ 20 µM | Kd [23, 34]: ≥ 20 µM | Kd [24, 34]: ≥ 20 µM | Kd [25, 34]: ≥ 20 µM

CLLSHTLAY
Kd [26, 37]: 1.06 µM | Kd [27]: 0.0643 µM | Kd [28]: 0.225 µM | Kd [29, 37]: 0.0246 µM

ITTFFTFAY
Kd [26, 38]: 0.14 µM | Kd [29, 38]: 0.192 µM

PEFYEAMYT
Kd [1, 39]: ≥ 52.4 µM | Kd [2, 39]: 3.74 µM | Kd [3, 39]: 5.05 µM | Kd [4, 39]: 17.4 µM | Kd [5, 39]: 4.91 µM | Kd [6, 39]: 3.4 µM

IAGFIEGGW
Kd [7, 40]: ≥ 20 µM | Kd [8, 40]: ≥ 20 µM | Kd [9, 40]: ≥ 20 µM | Kd [10, 40]: ≥ 20 µM | Kd [11, 40]: ≥ 20 µM | Kd [12, 41]: ≥ 20 µM | Kd [13, 40]: ≥ 20 µM | Kd [14, 40]: ≥ 20 µM | Kd [15, 40]: ≥ 20 µM | Kd [16, 40]: ≥ 20 µM | Kd [17, 41]: ≥ 20 µM | Kd [18, 40]: ≥ 20 µM | Kd [19, 41]: ≥ 20 µM | Kd [21, 40]: ≥ 20 µM | Kd [22, 40]: ≥ 20 µM | Kd [23, 40]: ≥ 20 µM | Kd [24, 40]: ≥ 20 µM | Kd [25, 40]: 0.0654 µM

HSNASTLLY
Kd ([26]; source organism: Staphylococcus aureus subsp. aureus N315): 0.0025 µM

KDTPGGYCL
Kd [1, 33]: ≥ 61 µM | Kd [2, 33]: 11.9 µM | Kd [3, 33]: 3.48 µM | Kd [4, 33]: ≥ 77.9 µM | Kd [5, 33]: ≥ 78.1 µM | Kd [6, 33]: 18.3 µM

SDLDMLTQS
Kd [1, 42]: ≥ 77.5 µM | Kd [2, 42]: ≥ 24.7 µM | Kd [3, 42]: 6.1 µM | Kd [4, 42]: ≥ 42.2 µM | Kd [5, 42]: ≥ 78.1 µM | Kd [6, 42]: ≥ 77.7 µM

YQATGFGTN
IC50 [30]: ≥ 146 µM | IC50 [31]: ≥ 231 µM | IC50 [32]: 22.7 µM

KLTEAITAA
IC50 [30]: 2.05 µM | IC50 [32]: ≥ 171 µM

WASRELERF
Kd ([25]; source organism: Human immunodeficiency virus type 1 BH10): 0.0275 µM | Kd ([29]; source organism: Human immunodeficiency virus 1): 0.0568 µM

AEWVLAYML
Kd [1, 39]: 0.418 µM | Kd [2, 39]: 0.00475 µM | Kd [3, 39]: 0.00402 µM | Kd [4, 39]: 0.0139 µM | Kd [5, 39]: 0.00504 µM | Kd [6, 39]: 0.0365 µM
